The text below walks through data of US9603896B2, “Peptide compounds and methods of production and use thereof” (priority 2012, dated 2017).

The format of data set [1] is physicochemical. From the text: In the initial stages of the work leading to the presently disclosed and claimed inventive concept(s), sequential addition of amino acids was used to make the peptides. Three candidate peptides (CAP3720-44 (SEQ ID NO:1), CAP3720-44ser26 (SEQ ID NO:2), and CAP3720-44ser42 (SEQ ID NO:5)) were synthesized. […] In one embodiment, a fragment Fmoc condensation strategy was used rather than sequential addition of amino acids. In the fragment condensation method, three small fragments were made and condensed together to form a CAP3720-44ser42 amino acid sequence (SEQ ID NO:5). The rationale behind this reasoning was that three small fragments could be synthesized in a highly purified form and linked together, thereby overcoming some of the aggregation problems. The product from this synthesis was dialyzed against 1% acetic acid and lyophilized and determined to be approximately 50% pure. Antimicrobial activity of this peptide was approximately half of what was normally obtained. In one embodiment, the dialysis procedure was changed to employ a dilute tri-fluoro acetic acid (TFA) solution (e.g., 0.1%), which obtained a product with stronger antimicrobial activity and greater purity (about 80%). In the next production, a cysteine residue was used that was protected during synthesis and then de-protected in the final stages of purification, in an attempt to improve stability.
When the arginines were linked to the peptide to form the peptide backbone (SEQ ID NOs: 18-20), there was marked increase in solubility of the peptides and very potent activity (capable of reducing bacterial load from 1×10^6 CFU/ml to […] CFU/ml, a 5 log reduction). […] Much time and experimental effort was spent in the laboratory exploring purification techniques, but yield and purity could not be increased beyond about 70%. […] Finally, after extensive additional experimentation, another solubilizing moiety was added to the peptides, and this addition increased half-life, solubility, and purity of the peptides. […]

For data set [2], the system named is Pseudomonas clinical isolate B64. Kind of data set: BIOSCREEN C™ growth assay, antibiotic and peptide combinations. The format is cell-based, Pseudomonas aeruginosa. Here is the method:
Cefotaxime (Cefo) and peptide combinations included a constant amount of Cefotaxime (2.81 μg/ml) with suboptimal amounts of peptide (0, 0.34, 1.01, and 3.04 μg/ml).
The peptide and antibiotics were set up in the wells of the microtiter plate at starting ratios of MIC equivalents of antibiotic:peptide at 3:1, 1:1, and 1:3. They were serially diluted to concentrations well below suboptimal/sublethal levels of the antibiotic and peptide. The organism was added (1×10^5 CFU/well), the BIOSCREEN C™ assay (Growth Systems USA, Piscataway, N.J.) was performed, and data was collected over 24 hours.

In a further data set the test system is mouse cornea. Kind of data set: In vivo model of corneal wound healing (corneal epithelial abrasion). The procedure: The in vivo model of wound healing was carried out using a disposable biopsy punch (2 mm, Miltex, York, Pa.) to demarcate the mouse cornea and a 0.5 mm burr using the AlgerBrush II (The Alger Company, Inc., Lago Vista, Tex.) to remove the corneal epithelium. The corneal abrasions were treated at 0 and 16 hours with peptide 95-122 (10^−5 M), peptide 120-146WH (10^−6 M and 10^−8M), peptide 120-146WR ((10^−6 M and 10^−8M), or vehicle control (0.9% sodium chloride, pH 5.5, Baxter, Deerfield, Ill.). Corneal abrasions were visualized using sterile fluorescein sodium ophthalmic strips USP (Fluorets®, Chauvin Laboratory, Aubenas, France) dampened with sterile PBS. Images were taken at 0, 16, and 24 hours immediately following fluorescein staining.
Mice were anesthetized using ketamine (100 mg/kg; Bionichepharma, LLC., St. Lake Forrest, Ill.) and xylazine ([…]; Rompun; Bayer Corp., Shawnee Mission, Kans.), and the right cornea was wounded as follows. A disposable biopsy punch (2 mm, Miltex, York, Pa.) was used to demarcate the mouse cornea. The corneal epithelium was carefully removed within the 2 mm demarcated area with a 0.5 mm burr using the AlgerBrush II (The Alger Company, Inc., Lago Vista, Tex.). The corneal abrasions were treated at 0 and 16 hours with HB-EGF (250 ng/ml), rCAP37 (250 ng/ml), or vehicle control (0.9% sodium chloride, pH 5.5, Baxter, Deerfield, Ill.). Corneal abrasions were visualized using sterile fluorescein sodium ophthalmic strips USP (FLUORETS®, Chauvin Laboratory, Aubenas, France) dampened with sterile PBS. Images were taken at 0, 16, 24, and 48 hours immediately following fluorescein staining using a surgical microscope equipped with a camera (Carl Zeiss OPMI VISU 140, Carl Zeiss Surgical, Inc., Oberkochen, Germany). The areas of the open wound were quantitated using ImageJ software (US National Institutes of Health), and the results were reported as the percentage of wound closure.
Whole mouse eyes were collected for histology at 0, 6, 16, 24, and 48 hours post wounding and were immediately placed in Prefer fixative (Anatech LTD., Battle Creek, Mich.) for 20 minutes before being transferred to 70% ethanol. Tissues were paraffin-embedded and cut at a thickness of 5 μm, mounted on SUPERFROSTPLUS® slides (Statlab Medical Products, Lewisville, Tex.), and subsequently deparaffinized, rehydrated, and washed in deionized water. Sections were stained with hematoxylin (Leica Microsystems, Buffalo Grove, Ill.) and rinsed twice in deionized water before being washed in Blue Buffer (Leica Microsystems). The sections were finally washed in deionized water and 95% ethanol prior to being counterstained with eosin (Leica Microsystems). Sections were dehydrated in ethanol and cleared in xylene.

Data set [3] has as its system human corneal epithelial cell (HCEC). As to the kind of experiment: HCEC chemotaxis, modified Boyden chemotaxis chamber assay. In kind it is cell-based. The conditions noted are these: 120-146QH at 10^−4, 10^−6, 10^−8, 10^−10 M; 120-146QR at 10^−6, 10^−8 M; HB-EGF 50 ng/ml; rCAP37 250 ng/ml; 3 hours at 37° C. The procedure: The effect of buffer control (0.1% BSA in Gey's buffer), heparin binding-epidermal growth factor (HB-EGF, 50 ng/ml), recombinant CAP37 (rCAP37, 250 ng/ml), 120-146QH (10^−12M, 10^−10 M, 10^−8 M, 10^−6M, and 10^−4M,) and 120-146QR (10^−10M, 10^−8M, 10^−6M, and 10^−4M) on HCEC chemotaxis was determined by the modified Boyden chemotaxis chamber method. HCEC chemotaxis was measured in response to HB-EGF, rCAP37, and peptides 120-146QH (SEQ ID NO:29) and 120-146QR (SEQ ID NO:28) after incubation for 3 hours at 37° C. Chemotaxis is expressed as a percent migration. The buffer control (no chemoattractant) is arbitrarily assigned the value of 100% migration. Data are expressed as means±SEM and are calculated from 6 observations for each test point. **P<0.01 by Wilcoxon signed-rank test as compared to controls.
Chemotaxis assays were performed using the modified Boyden chemotaxis chamber assay. Peptide 120-146QH was used at 10^−4 M, 10^−6 M, 10^−8 M, 10^−10 M, and 10^−12 M, and peptide 120-146QR was used at 10^−4 M, 10^−6M, 10^−8M, and 10^−10 M.

A further data set relates to HCEC monolayers. Kind of data set: In vitro scratch assay of wound closure in HCEC monolayers. The format is cell-based, human. Here is the method: An in vitro scratch assay was used in order to determine the ability of rCAP37 to facilitate corneal wound healing. Human corneal epithelial cells were cultured as described above until they reached a confluent monolayer. Each monolayer was scratched using a 10 μl pipette tip to create two perpendicular lines. Monolayers were treated with heparin binding-epidermal growth factor (HB-EGF, 250 ng/ml; Becton Dickinson), rCAP37 (25-2000 ng/ml), or basal KSFM (Gibco). Wound closure was monitored at 0, 18, 24, and 48 hours utilizing a camera-equipped inverted microscope (TE2000-E; Nikon, Melville, N.Y.). Time-lapse images of in vitro wound closure were obtained using a camera-equipped inverted microscope (TE2000-E; Nikon) from 0-18 hours. HCEC monolayers were treated with HB-EGF, rCAP37, and basal KSFM as described above. The width of each scratch was quantitated using ImageJ software (US National Institutes of Health, Bethesda, Md.). Results are presented as the percentage of wound closure.

Ends that are not written are not given here. Where only a bound is given, the exact number is not on record here.

With “NQGRHFCGGALIHARFVMTAASCFQ (listed as Homo sapiens) [CAP3720-44]”, the solubility entry in data set [1] was “relatively insoluble”.
For the molecule `C[C@H]1COc2c(N3CCN(C)CC3)c(F)cc3c(=O)c(C(=O)O)cn1c23` [Levofloxacin, reference compound], in data set [2] (in the presence of 3.04 μg/ml of the peptide BCC02-5RMP), the “MIC of Levofloxacin in combination with peptide” value came to 3.5 µg/mL.
As for “NQGRHFCGGALIHARFVMTAASSFQ [CAP3720-44ser42]”, the solubility result in data set [1] was “relatively insoluble”.
As to `CO/N=C(\C(=O)N[C@@H]1C(=O)N2C(C(=O)O)=C(COC(C)=O)CS[C@H]12)c1csc(N)n1` [Cefotaxime, reference compound], the “bactericidal impact of antibiotic alone” value in data set [2] (2.8 μg/ml) is listed as “very little bactericidal impact”.
Regarding “NQGRHFSGGALIHARFVMTAASCFQ [CAP3720-44ser26]”, in data set [1], the solubility entry is reported as “relatively insoluble”.

B1: heparin binding-epidermal growth factor (protein, UniProt Q99075 63-148, looked up)
Heparin-binding EGF-like …: DLQEADLDLLRVTLSSKPQALATPNKEEHGKRKKKGKGLGKKRDPCLRKYKDFCIHGECKYVKELRAPSCICHPGYHGERCHGLSL
notes: positive control growth factor
With B1, in the data set on mouse cornea (250 ng/ml at 0 and 16 hours), the “closure of wounds compared to the buffer control” value is given as “significantly higher”. Besides, the “migration of HCECs vs buffer control” value in data set [3] is “significant increase in migration”. For the same molecule, the “time to complete closure of scratch wounds” value in the data set with HCEC monolayers (250 ng/ml) was not above 24 h. Also, the percentage wound closure in the data set on HCEC monolayers (250 ng/ml, at 18 hours) is recorded as approximately 88%.

B2: CAP37: cationic antimicrobial protein of Mr 37 kDa; recombinant CAP37 produced in HEK 293 cells (protein)
chain: IVGGRKARPRQFPFLASIQNQGRHFCGGALIHARFVMTAASCFQSQNPGVSTVVLGAYDLRRRERQSRQTFSISSMSENGYDPQQNLNDLMLLQLDREANLTSSVTILPLPLQNATVEAGTRCQVAGWGSQRSGGRLSRFPRFVNVTVTPEDQCRPNNVCTGVLTRRGGICNGDGGTPLVCEGLAHGVASFSLGPCGRGPDFFTRVALFRDWIDGVLNNPGP
Turning to B2, the “reduction of wound size (wound closure)” value in the data set on mouse cornea (16 hours, 250 ng/ml topical at 0 and 16 hours) came to 71%. Further, the “re-epithelialization (H&E histology) vs vehicle-treated wounds” value with mouse cornea (24 hours, 250 ng/ml) was “greatly accelerated”. Further, the wound closure in the data set on mouse cornea (24 hours, 250 ng/ml topical at 0 and 16 hours) came to 83%. For the same molecule, the “structural integrity of epithelium (H&E histology)” value in the data set with mouse cornea (48 hours, 250 ng/ml) was “regained full integrity”. In data set [3], the “migration of HCECs vs buffer control” value is “significant increase in migration”. Further, the percentage wound closure is given as approximately 71% in the data set with HCEC monolayers (250 ng/ml, at 18 hours) and “approximately 62%” in the data set on HCEC monolayers (500 ng/ml).
